Experiment: yeast display, Sf9 membrane polyspecificity reagent, FACS + sequencing; frameworks hold sequencing errors
Procedure, shortened: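 Galactose-induced (36–48 hours) yeast carrying a synthetic nanobody display library were exposed to 10% biotinylated, detergent-solubilized Sf9 membrane reagent at 4 °C for 1 hour. FACS followed streptavidin microbead enrichment, using low and high (top ~1%) gates for expression (anti-HA) and reagent binding (streptavidin). Colony PCR, MiSeq 2 × 250 sequencing and CDR-length filtering followed. Labels for polyreactivity reflect the gate of origin.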
In the case of “QVQLVESGGGLVQAGGSLRLSCAASGRTMGYNTMGWYRQAPGKERELVARISYGGSTYYAESVKGRFTISRDNAKNTVYLQMNSLIPEDTAVYYCAAEARSYRYPYNYWGQGTQVTVSS”, the “polyreactivity (PSR sort gate)” value is reported as “high polyreactivity”.
With “QVQLVESGGGLVQAGGSLRLSCAASGSTFRPNAMGWYRQAPGKERELVAAINRGGRTNYADSVKGRFTISRDNAKNTVYLQMISLKPEDTAVYYCAAYIAGRYGARGYDYWGQGTQVTVSS” the “polyreactivity (PSR sort gate)” value was “high polyreactivity”.
With “QVQLVESGGGLVQAGGSLRLSCAASGRIFPAYAMGWYRQAPGKEREWVASIRRGGITYADSVKGRFTISRDNAKNTVYLQMNSLKPEDTAVYYCNADYRGWGYHMDYWGQGTQVTVSS” the “polyreactivity (PSR sort gate)” value was “low polyreactivity”.
In the case of “QVQLVESGGGLVQAGGSLRLSCAASGRIFYKYAMGWYRQAPGKERELVAGISRRGGTTNYADSVKGRFTNSRDNAKNTVYLQMNSLKPEDTAVYYCAVRPLYDRRYTAVRRYDYWGQGTQVTVSS”, the “polyreactivity (PSR sort gate)” value is reported as “high polyreactivity”.
In the case of “QVQLVESGGGLVQAGGSRRLSCAASGSTFEYNAMGWYRQAPGKERELVASSTNYADSVKGRFTISRDNAKNTVYLPMNSLKPEDTAVYYCAREQGVNRNHDYWGQGTQVTVSS”, the “polyreactivity (PSR sort gate)” value is reported as “low polyreactivity”.
With “QVQLQESGGGLAQAGGSLRLSCAASGNIFDADIMGWYRKAPGKERELVGSITDGGSTNYVDSVKGRFTISRDNAKNTVHLQMNSLKPEDTAVYYCAAIAYPEIPTYFDYDSDCFNWGHGTQVTVSS” the “polyreactivity (PSR sort gate)” value was “high polyreactivity”.
With “QVQLVESGGGLVQAGGSLRLSCAASGSTFGVNDMGWYRQAPGKERELVAAISRGAITNYADSVKGRFTISRDNAKNTVYLQMNSLKPEDTAVYYCAAGFVTYYVPQYKEYGYDYWGQGTQVTVSS” the “polyreactivity (PSR sort gate)” value was “low polyreactivity”.
For “QVQLEESGGGLVQAGGSLRLSCAASGRIFQYYVRGWYRQAPGKERELVAAITRRGTNTYYADSVKGRFTISRDNAKNTVYLQMHSLNPEETAVYYCAATYYWSGYPVKTTSDYWGQGTQITVSS”, the “polyreactivity (PSR sort gate)” value was “high polyreactivity”.
With “QVQLVESGGGLVQAGGSLRLSCAASGFIFGGYAMGWYRQAPGKERALVAAITRSGGSTYYADSVKGRFTISRDNAKNTVYLQMNSLKPEDTAVYYCAAERQPYRTSSYNYWGQGTQVTVSS” the “polyreactivity (PSR sort gate)” value was “high polyreactivity”.
With “QVQLVESGGGLVQAGGSLRLSCAASGSTFFTYAMGWYRQAPGKERELVAAITRGGSSYYADSVKGRFTISRDNAKNTVYLLMNSLKPEDTAVYDCAARVSYRYGYWGQGTQVTVSS” the “polyreactivity (PSR sort gate)” value was “high polyreactivity”.
With “QVQLVESGGGLVQAGGSLRLSCAASGSTFVYNAMGWYRQAPGKERELVAAISARTGRTYYADSVKGRFTISRDNAKNTVYLQMNSLKPEDTAVYYCARRYYTGYKNLPYGYWGQGTQVTVSS” the “polyreactivity (PSR sort gate)” value was “high polyreactivity”.
With “QVQLVESGGGLVQAGGSLRLSCAASGGIFVTYAMGWCRQAPGKERELVAAITSGDSTYYADSVKGRFTISRDNAKNPVYLQMNSLKPEDTAVYYCAVGSTDRVSAQGSYFTYDYWGQGTQVTVSS” the “polyreactivity (PSR sort gate)” value was “low polyreactivity”.
In the case of “QVQLVESGGGLVQAGGSLRLSCAASGRTFYTYAMGWYRQAPGNERELVATISSGGGRTYYADSVKGRFTISPDNAKKTVYLQRNSLNPEDTAVYYCAADKWENRYHAVSDTRPRDYWGQGTQVTVSS”, the “polyreactivity (PSR sort gate)” value is reported as “low polyreactivity”.
With “QVQLVESGGGLVQAGGSLRLSCGASGSTFVAYDMGWYRQGPGKERELVAAISWSDATTYYADSVKGRFTISRDNAKNTVYLLMNSLNPEDTAVYYCAATRDTNNMDYWGQGTQVTVSS” the “polyreactivity (PSR sort gate)” value was “low polyreactivity”.
In the case of “QVQLVESGGGLVQAGGSLRLSCASSGFTFKDYAMGWYRQAPGKERELVAAISYSGGSTYYADSVKGRFTLSRDNAKNTVYLQMNSLKPEDTAVYYCARYFRRSAIYTRPRMDYWGQGTQVTVSS”, the “polyreactivity (PSR sort gate)” value is reported as “high polyreactivity”.
For “QVQLVESGGGLVQAGGSLRLSCAASGSIFYHNAMGWYRRAPGKEREFVAAITGSGGSTYYADSVKGRFTISRDNAKNTVYLQMNSLKPEDTAVYYCASVGYTKWWISWGYDYWGQGTQVTVSS”, the “polyreactivity (PSR sort gate)” value was “low polyreactivity”.
With “QVQLVESGGGLVQAGGSLRLSCAASGITFGHYTMGWYRQAPGKERELVAAISWSGGSTYYADSVKGRFTISRDNAKNTVYLQMNSLKPEDTAVYYCNRVKPVIASYDSDYWGQGTQVTVSS” the “polyreactivity (PSR sort gate)” value was “low polyreactivity”.
With “QVQLVESGGGLVQAGGSLRLSCAATGRTFIPYAMGWYRQAPGKERELVAAIRTTGGSTYYADSVKGRFTISRDNAKNTVYLQMNSLKPEDTAVYYCAATSRQRPYDYWGQGTQVTVSS” the “polyreactivity (PSR sort gate)” value was “high polyreactivity”.
With “QVQLVESGGGLVQAGGSLRLTCAGSGRIFPFYAMGWYRHAPGKERELVAAISWNGGSTFYADSVKGRFTISRDNAKNTVYLQMNSLKPEDTAVYYCNADFRPAYTYDYWGQGTQVTVSS” the “polyreactivity (PSR sort gate)” value was “low polyreactivity”.
In the case of “QVQLVESGGGLVQAGGSLRLSCAASGFIITTYAMGWYRQAPGTEREVVAGISSSGGSTRYADSVKGRFTISRDNAKNTVYLQMNSLKPEDTAVYYCNVLRYRGYDYWGQGTQVTVSS”, the “polyreactivity (PSR sort gate)” value is reported as “high polyreactivity”.
For “QVQLVESGGGLVQAGGILRLSCDASGRIFRANAMGWYRQAPGKERELVASITYSGGSTYYADSVKGRFTISRDNAKNTVYLPMNSLNPEDTAVYYCARAGISSGGYYYWGQGTQVTVSS”, the “polyreactivity (PSR sort gate)” value was “low polyreactivity”.
With “QVKLVESGGGLVQAGGSLRLSCAASGSIFYYYAMGWYREAPGKERELVAAISYGGGSTYYADSVKGRFTISRDNAKNTVYLQMNSLKPEDTAVYYCAVQEVVGWYLYDYWGHGTQVTVSS” the “polyreactivity (PSR sort gate)” value was “high polyreactivity”.
For “QVQLVETGGGLVQAGGSLRLSCAASVIISSVYAMGWYRQAPGNERELVAAISGSGGSTYYADSVKGRFTISRDNAKNTVYLQMISLKPEDTAVYYCAKGYQYQGNSYGYWGQGTQVTVSS”, the “polyreactivity (PSR sort gate)” value was “low polyreactivity”.
For “QVHHVESGGGLVQAGGSLRLSCAASGFIIPYYAMGWYRPAPGKERELVAAISWSGSNTYYADSVKGRFTISRDNAKNTVYLQMNSLKPEDTAVYYCAARYSVYYFVQRNGRYGYWGQGTQVTVSS”, the “polyreactivity (PSR sort gate)” value was “high polyreactivity”.
In the case of “QVQLVESGGGLVQAGGSLRLSCAASGSIFPHNAMGWYRQAPGKERELVAAITTIGGSTYYADSVKGRFTISRDNAKNTVYLQRNSLKPEDTAVYYCAADCATVLGFYTYDYWGQGTQVTVSS”, the “polyreactivity (PSR sort gate)” value is reported as “low polyreactivity”.
For “QVQLVESGGGLVQAGGSLRLSCAASGSIFYINDMGWYRQAPGKERELVAAISWSGGTTYYADSVKVRFTISRDNAKNTVYLQMNSLKPEDTAVYYCATDYFFLFPWGLSDYWGQGTQVTVSS”, the “polyreactivity (PSR sort gate)” value was “low polyreactivity”.
For “QVQLVESGGGLVQAGGSLRLSCAASGFTFPWYAKGWYRQAPGKERELVAAITSGSSTYYADSVKGRFTISRDNAKNTVYLQMNSLKPEVTAVYYCAKDGGWSRLHYNYWGQGTQVTVSS”, the “polyreactivity (PSR sort gate)” value was “high polyreactivity”.
In the case of “QVQLVESGGGLVQAGGSLRLSCAASGRIFDGNALGWYRKAPGKERELFAAISWTGGSTYYADSVKGRYTISRDNAKNTVYLQLNSLKPEDTAVYYCAADSGWWLDQLSWYDYWGQGTQVTVSS”, the “polyreactivity (PSR sort gate)” value is reported as “low polyreactivity”.
For “QVHLVESGGGLVQAGGSLRLSCAASGITFYGNTMGWYRQTPGKERELVARISSGGSTNYAESVKGRFTISRVNAKNTVYLQMNSLKPEDTAVSYCAVKQYGFIWSGYGYDYWGQGSQVTVSS”, the “polyreactivity (PSR sort gate)” value was “high polyreactivity”.
In the case of “QVQLVESGGGLVQAGGSLRLSCAASGSTFNRYAMGWYRQAPGKERELVADINSGGRTNYADSVKGRFTISRDNAKNTVYLQMNSLKPEDTAVYFCARRFQYWLSGGQYDYWGQGTQVTVSS”, the “polyreactivity (PSR sort gate)” value is reported as “high polyreactivity”.
With “QGQLVESGGGLVQAGGSLRLSCAASGRIFVIYAMGWYRQAPGKERELVAAISSRGGTTYYADSVKGRFTISRDNAKNTVYLQMNSLKPEDTAGYYCNVARFYHIYDYWGQGTHVTVSS” the “polyreactivity (PSR sort gate)” value was “high polyreactivity”.
In the case of “QVQLVESGGGLVQAGGSLRLSCAASGSTNGRNAIGWSRQAPRKERELVAAISSGGSTSYADSVKVRFTISRDNAKYTDYLQMNSLKPVDTAVYYCAAQSVGSQYDYWGQGTQVTVSS”, the “polyreactivity (PSR sort gate)” value is reported as “low polyreactivity”.
For “QVQLVESGGGLVQAGGSLRLICAASGRIFHVNAMGWYRQAPGKERELVAAISTSGGRTYYADSVKGRFTISRDNAKNTVYLQMNSLKPEDTAVYYCAAVSRAPGLRYDYWGQGTQVTVSS”, the “polyreactivity (PSR sort gate)” value was “high polyreactivity”.
With “QVQLVESGGGLVHAGGSLRLSCAASGRTQPYNAMGWYRQAPGKERELVAAISKRGSSTYYADSVKGRFTISRDNAKNTVYLQMNSLKPEDTAVYYCATPGPAVHGTRGEYDYWGQGTQVTVSS” the “polyreactivity (PSR sort gate)” value was “high polyreactivity”.
For “QVQLVESGGGLVQAGGSLRLSCAASGRIFPHYAMGWYRQAPGKERELVAAISSGGRTNYADSVKGRFTISRDNAKNTVYLQMNSLKPEDTAVYYCARRYPGGYYWGQGTQVTVSS”, the “polyreactivity (PSR sort gate)” value was “high polyreactivity”.
With “QVQLVESGGGLVQAGGSLRLSCAASGRIFSRYAMGWYRKAPGKERELVAAITQSGTSTYYADSVKGRFTFSRDNAKNTVYLQMNCLKPEDTAVYYCNAYRQYRYDYWGQGTQVTVSS” the “polyreactivity (PSR sort gate)” value was “low polyreactivity”.
For “QVQLVESGRGLVQAGGSLRLSCAPSGFTFHNNVMGWYRQAPGKERELVATISKSGGSTYYADSVKGRFTISRDNAKNTVYLQMNSLKPEDTAVYYCARRYRDYGRYGYWGQGTQVTVSS”, the “polyreactivity (PSR sort gate)” value was “high polyreactivity”.
For “QVQLVESGGGLVQAGGSLRLSCAASGFTFISNAMGWYRQAPGKERELVAAISSSGGRTYYADSVKGRFTISRDNAKNTVYLQMNRLKPEDTAVYYCNAVRSLLYSRKIEYDYWGQGTQVTVSS”, the “polyreactivity (PSR sort gate)” value was “low polyreactivity”.
With “QVQLVESGGGLVQAGGSLRLSCAASGLIFGPNAMGWYRQAPGKERELVAAITKSGDSTYYADSVKGRFTISRDNAKNTVYFQMNSLKPEDTAVYYCAADTTTGLYDYWGQGTQVTVSS” the “polyreactivity (PSR sort gate)” value was “low polyreactivity”.
With “QVQLVESGGGLVQAGGSLRLSCAASGRTFGLNGMGWYRQAPGKEREFVATITGSGTSTYYADSVKGRFTISRDNAKNTVYLQMNSLKPEDTAVYYCAALSGLWGYHYYHEYYYWGQGTQVTVSS” the “polyreactivity (PSR sort gate)” value was “low polyreactivity”.
In the case of “QVQLVESGGGLVQAGGSLRLSCAASGIIFYRYAMGWYRQAPGKERELVARITSSTGSTYYADSVKGRFTISRDNAKNTVYLQMNSLKPEDTAVYYCNARRQRNKSYNYWGQGTQVTVSS”, the “polyreactivity (PSR sort gate)” value is reported as “high polyreactivity”.

Reference: the nanobody polyreactivity screen of Harvey et al. (2022)
